# Source: article PMC12412469 (2025)
# T1: Recombinant Human VEGF165 (human, UniProt P15692-4 1-191)
# T1 chain: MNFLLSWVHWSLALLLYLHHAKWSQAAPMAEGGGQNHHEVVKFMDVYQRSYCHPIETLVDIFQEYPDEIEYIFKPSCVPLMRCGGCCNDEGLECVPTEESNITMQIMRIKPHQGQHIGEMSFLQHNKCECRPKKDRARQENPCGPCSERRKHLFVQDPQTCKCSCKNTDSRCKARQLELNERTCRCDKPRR
# T2: Biotinylated Recombinant Human IL-7R alpha/CD127 Fc Chimera Avi-tag (human, UniProt P16871 21-239, biotin (biotinylated Avi-tag))
# T2 chain: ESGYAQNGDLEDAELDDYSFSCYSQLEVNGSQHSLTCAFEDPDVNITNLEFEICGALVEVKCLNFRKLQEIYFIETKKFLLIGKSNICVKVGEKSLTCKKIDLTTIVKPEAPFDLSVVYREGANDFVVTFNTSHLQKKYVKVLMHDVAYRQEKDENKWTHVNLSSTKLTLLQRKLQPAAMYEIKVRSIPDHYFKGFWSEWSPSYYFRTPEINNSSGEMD
# Tests used:
# [1] = molecular target: T1, Recombinant Human VEGF165
# [2] = molecular target: T1, Recombinant Human VEGF165; assay: SPR
# [3] = molecular target: T1, Recombinant Human VEGF165; assay: SPR; rhVEGF165 amine-coupled to a CM5 chip; designs injected (multi-cycle kinetics, 60 s injection, 60 s dissociation); PBS with 0.05% Tween-20; 25 °C; 10 µL/min; 1:1 binding assumed, linearization method
# [4] = molecular target: T2, Biotinylated Recombinant Human IL-7R …; assay: SPR
Binder,koff [2],koff [4],further results
6YUD scaffold (unmutated template) (other) MKFAVIDRKNFTLIHFEIEKPIKPEILKEIEIPSVDTRKGVVISGRGPIWLHCFLAHKYAHTPFVAVYDPRLGAVVVQSHSELREGDVIDVVVEEILKGGVRHV,–,0.0821 s⁻¹,–
5NLC scaffold (unmutated template) (other) MAQIAERLASLRSQLPPSVQLIAVSKNHPAAAIREAYAAGQRHFGENRVQEAIAKQAELTDLPDLTWHLLGKLQSNKARKAVEHFDWIHSVDSWALAERLDRIAGELGRSPKLCLQVKLLPDPNKAGWDPADLRAELPQLSQLQQVQIRGLMVIAPLGLTAAETQALFAQARTFAAELQQQAPQLRLTELSMGMSSDWPLAVAEGATWIRVGTQLFGPRSL,–,0.375 s⁻¹,–

# The next lines start with results.
koff [2],koff [4],Binder,further results
0.0309 s⁻¹,–,Sam0.7 (designed binder) LPTAEEVQKLMARYIELMDVGDIEAIVQMYADDATVEAPFGAPPIHGRERIAYFYRRMLGGGIARATLTGPVRASHNGTGAMPFRVEYVFNGQPFAMDVRVEMRFDEHGRIQTMQAYWDWVNLSVREP,"proliferation of the VEGF-sensitive leukemia cell line U937 (CellTiter-Blue, 72 h), 1 to 100 µg/mL of the binder, percent of untreated control [1]: 50%; Kd [3]: 190 nM"
0.0006 s⁻¹,–,Sima3.2 (designed binder) STNISPKQGLDKAKYFSGKWYLTHVLIKDPKIVSQFCASFTPRESDGTVKIAVYLYLAIKKTSDYAIGEGKLESSGLQYTATSKVVDKKKAVLKELDERHSYTVTVLEADDSSALTHITVREGSKDYGDYYLVLTHQKDAEPSAKVKSAVTQAGLQLSQFVGTKDLGCQYDDQFTSL,other [1]: 50%; Kd [2]: 14 nM
